Measurements: article PMC10469072

Target: CD22 (recombinant, histidine-tagged; Thermo Fisher A42609) (human, UniProt P20273 20-687)
Assay: His-bead pull-down with qRT-PCR

Sequence of CD22 (recombinant, histidine-tagged; Thermo Fisher A42609) (P20273 20-687, one chain of several): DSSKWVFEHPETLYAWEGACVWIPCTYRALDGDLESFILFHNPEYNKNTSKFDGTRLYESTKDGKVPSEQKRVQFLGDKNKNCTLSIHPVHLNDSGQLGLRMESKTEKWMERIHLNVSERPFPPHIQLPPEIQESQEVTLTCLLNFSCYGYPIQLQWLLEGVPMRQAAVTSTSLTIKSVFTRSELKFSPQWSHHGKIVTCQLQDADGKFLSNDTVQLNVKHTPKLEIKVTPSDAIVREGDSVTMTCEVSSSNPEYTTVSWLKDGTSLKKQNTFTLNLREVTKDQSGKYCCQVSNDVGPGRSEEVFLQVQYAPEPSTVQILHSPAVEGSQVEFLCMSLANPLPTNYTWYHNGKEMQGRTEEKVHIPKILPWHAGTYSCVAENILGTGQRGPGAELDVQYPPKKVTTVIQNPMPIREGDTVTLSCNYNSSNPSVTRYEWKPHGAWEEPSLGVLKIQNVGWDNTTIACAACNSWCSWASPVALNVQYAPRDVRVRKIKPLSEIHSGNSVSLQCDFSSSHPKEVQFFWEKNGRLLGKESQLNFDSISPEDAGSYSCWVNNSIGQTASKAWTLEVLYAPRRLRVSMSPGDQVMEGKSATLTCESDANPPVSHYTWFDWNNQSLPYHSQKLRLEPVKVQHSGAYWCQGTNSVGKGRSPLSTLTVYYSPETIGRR

B1: B-ALL1 (structured_RNA)
RNA: GGGAGGACGAUGCGGGCCAUUCGUCUUUUCGUCCCCAGACGACUCGCCCGA
modifications: 2'-fluoro pyrimidines (2'F-C, 2'F-U), unmodified purines
binding result: binds
